Data: PMC12397908, “Cryo-EM structures of the MnmE–MnmG complex reveal large conformational changes and provide new insights into the mechanism of tRNA modification” (Nucleic Acids Research, 2025)
Positions count from the first letter of the chain named.

B1: Escherichia coli MnmE-Δ450–454 (domain or fragment, E. coli, UniProt P25522 1-449, looked up)
chain: MSDNDTIVAQATPPGRGGVGILRISGFKAREVAETVLGKLPKPRYADYLPFKDADGSVLDQGIALWFPGPNSFTGEDVLELQGHGGPVILDLLLKRILTIPGLRIARPGEFSERAFLNDKLDLAQAEAIADLIDASSEQAARSALNSLQGAFSARVNHLVEALTHLRIYVEAAIDFPDEEIDFLSDGKIEAQLNDVIADLDAVRAEARQGSLLREGMKVVIAGRPNAGKSSLLNALAGREAAIVTDIAGTTRDVLREHIHIDGMPLHIIDTAGLREASDEVERIGIERAWQEIEQADRVLFMVDGTTTDAVDPAEIWPEFIARLPAKLPITVVRNKADITGETLGMSEVNGHALIRLSARTGEGVDVLRNHLKQSMGFDTNMEGGFLARRRHLQALEQAAEHLQQGKAQLLGAWAGELLAEELRLAQQNLSEITGEFTSDDLLGRIFSS
notes: E. coli MnmE without the C-terminal conserved 450FCIGK454 motif (deletion of residues 450-454; K454 is the C-terminal residue of MnmE); C-terminal truncation of m1; made from the wild-type open reading frame in pET20b; source: E. coli BL21(DE3), purified (Ni-NTA IMAC, alkaline phosphatase treatment, second Ni-NTA, Superdex200 SEC)
B2: Escherichia coli MnmG (enzyme, E. coli)
chain: MFYPDPFDVIIIGGGHAGTEAAMAAARMGQQTLLLTHNIDTLGQMSCNPAIGGIGKGHLVKEVDALGGLMAKAIDQAGIQFRILNASKGPAVRATRAQADRVLYRQAVRTALENQPNLMIFQQAVEDLIVENDRVVGAVTQMGLKFRAKAVVLTVGTFLDGKIHIGLDNYSGGRAGDPPSIPLSRRLRELPLRVGRLKTGTPPRIDARTIDFSVLAQQHGDNPMPVFSFMGNASQHPQQVPCYITHTNEKTHDVIRSNLDRSPMYAGVIEGVGPRYCPSIEDKVMRFADRNQHQIFLEPEGLTSNEIYPNGISTSLPFDVQMQIVRSMQGMENAKIVRPGYAIEYDFFDPRDLKPTLESKFIQGLFFAGQINGTTGYEEAAAQGLLAGLNAARLSADKEGWAPARSQAYLGVLVDDLCTLGTKEPYRMFTSRAEYRLMLREDNADLRLTEIGRELGLVDDERWARFNEKLENIERERQRLKSTWVTPSAEAAAEVNAHLTAPLSREASGEDLLRRPEMTYEKLTTLTPFAPALTDEQAAEQVEIQVKYEGYIARQQDEIEKQLRNENTLLPATLDYRQVSGLSNEVIAKLNDHKPASIGQASRISGVTPAAISILLVWLKKQGMLRRSA
notes: E. coli MnmG in pET14b, preceded by an N-terminal His-tag and TEV cleavage site; domains described over residues 1-629; Homodimer (β2); also called EcMnmG; β2; source: E. coli BL21(DE3), purified (Ni-NTA IMAC, Superdex200 SEC)
B3: Escherichia coli MnmE-Δ436–454 (domain or fragment, E. coli, UniProt P25522 1-435, looked up)
chain: MSDNDTIVAQATPPGRGGVGILRISGFKAREVAETVLGKLPKPRYADYLPFKDADGSVLDQGIALWFPGPNSFTGEDVLELQGHGGPVILDLLLKRILTIPGLRIARPGEFSERAFLNDKLDLAQAEAIADLIDASSEQAARSALNSLQGAFSARVNHLVEALTHLRIYVEAAIDFPDEEIDFLSDGKIEAQLNDVIADLDAVRAEARQGSLLREGMKVVIAGRPNAGKSSLLNALAGREAAIVTDIAGTTRDVLREHIHIDGMPLHIIDTAGLREASDEVERIGIERAWQEIEQADRVLFMVDGTTTDAVDPAEIWPEFIARLPAKLPITVVRNKADITGETLGMSEVNGHALIRLSARTGEGVDVLRNHLKQSMGFDTNMEGGFLARRRHLQALEQAAEHLQQGKAQLLGAWAGELLAEELRLAQQNLSEITG
notes: E. coli MnmE without the entire C-terminal swivel helix (deletion of residues 436-454; K454 is the C-terminal residue of MnmE); C-terminal truncation of m1; made from the wild-type open reading frame in pET20b; source: E. coli BL21(DE3), purified (Ni-NTA IMAC, alkaline phosphatase treatment, second Ni-NTA, Superdex200 SEC)
B4: Escherichia coli MnmE (wild type) (enzyme, E. coli, UniProt P25522 1-454, looked up)
chain: MSDNDTIVAQATPPGRGGVGILRISGFKAREVAETVLGKLPKPRYADYLPFKDADGSVLDQGIALWFPGPNSFTGEDVLELQGHGGPVILDLLLKRILTIPGLRIARPGEFSERAFLNDKLDLAQAEAIADLIDASSEQAARSALNSLQGAFSARVNHLVEALTHLRIYVEAAIDFPDEEIDFLSDGKIEAQLNDVIADLDAVRAEARQGSLLREGMKVVIAGRPNAGKSSLLNALAGREAAIVTDIAGTTRDVLREHIHIDGMPLHIIDTAGLREASDEVERIGIERAWQEIEQADRVLFMVDGTTTDAVDPAEIWPEFIARLPAKLPITVVRNKADITGETLGMSEVNGHALIRLSARTGEGVDVLRNHLKQSMGFDTNMEGGFLARRRHLQALEQAAEHLQQGKAQLLGAWAGELLAEELRLAQQNLSEITGEFTSDDLLGRIFSSFCIGK
notes: E. coli MnmE, wild-type open reading frame in pET20b, preceded by an N-terminal His-tag and TEV cleavage site; 454 residues (K454 is the C-terminal residue); Homodimer (α2); also called EcMnmE; α2; source: E. coli BL21(DE3), purified (Ni-NTA IMAC, alkaline phosphatase treatment, second Ni-NTA, Superdex200 SEC)
B5: Escherichia coli MnmE K454A (enzyme, E. coli, UniProt P25522 1-454, looked up)
chain: B4 chain with K454A
notes: E. coli MnmE point variant made by QuikChange from the wild-type open reading frame in pET20b; Variant of m1; source: E. coli BL21(DE3), purified (Ni-NTA IMAC, alkaline phosphatase treatment, second Ni-NTA, Superdex200 SEC)

Assays:
Escherichia coli MnmG [1] = biological target: B2; assay: ITC; wild-type or mutant MnmE 700 μM in the syringe, MnmG 70 μM in the cell; with 1 mM FAD and 1 mM GppNHp; 25°C; 20 mM HEPES pH 7.5, 75 mM NaCl, 75 mM KCl, 5 mM MgCl2, 2 mM β-mercaptoethanol; one set of sites model; details: both partners purified
[2] = biological target: the molecule itself; assay: cryo-EM structure; MnmE–MnmG complex formed with GppNHp, FAD and K+ (20 mM HEPES pH 7.5, 150 mM KCl, 5 mM MgCl2, 2 mM DTT), purified by SEC; α2β2 and α4β2 classes
Escherichia coli MnmG [3] = biological target: B2; assay: ITC; MnmE 700 μM in the syringe, MnmG 70 μM in the cell; no ligands; 25°C; 20 mM HEPES pH 7.5, 75 mM NaCl, 75 mM KCl, 5 mM MgCl2, 2 mM β-mercaptoethanol; one set of sites model; details: both partners purified
Escherichia coli MnmG [4] = biological target: B2; assay: ITC; MnmE 700 μM in the syringe, MnmG 70 μM in the cell; with 1 mM FAD; 25°C; 20 mM HEPES pH 7.5, 75 mM NaCl, 75 mM KCl, 5 mM MgCl2, 2 mM β-mercaptoethanol; one set of sites model; details: both partners purified
Escherichia coli MnmG [5] = biological target: B2; assay: ITC; MnmE 700 μM in the syringe, MnmG 70 μM in the cell; with 1 mM GppNHp; 25°C; 20 mM HEPES pH 7.5, 75 mM NaCl, 75 mM KCl, 5 mM MgCl2, 2 mM β-mercaptoethanol; one set of sites model; details: both partners purified

Binder | Kd (Escherichia coli MnmG [1]) [µM] | stoichiometry N (Escherichia coli MnmG [1]) | stoichiometry N [2] | Kd (Escherichia coli MnmG [3]) [µM] | stoichiometry N (Escherichia coli MnmG [3]) | Kd (Escherichia coli MnmG [4]) [µM] | stoichiometry N (Escherichia coli MnmG [4]) | Kd (Escherichia coli MnmG [5]) [µM] | stoichiometry N (Escherichia coli MnmG [5])
B1 | 1.7 | 0.6 | – | – | – | – | – | – | –
B2 | – | – | 2 | – | – | – | – | – | –
B3 | 4.1 | 0.8 | – | – | – | – | – | – | –
B4 | 0.42 | 0.6 | 2 | 3.4 | 0.9 | 0.8 | 0.8 | 0.77 | 1.1
B5 | 2.2 | 0.5 | – | – | – | – | – | – | –
